This note sets out measurements from patent publication WO2021180110A1 (dated 2021).

In one experiment the target is T1, CD147-Tag fusion protein (human, UniProt P35613-2 22-205).
T1 sequence (looked up): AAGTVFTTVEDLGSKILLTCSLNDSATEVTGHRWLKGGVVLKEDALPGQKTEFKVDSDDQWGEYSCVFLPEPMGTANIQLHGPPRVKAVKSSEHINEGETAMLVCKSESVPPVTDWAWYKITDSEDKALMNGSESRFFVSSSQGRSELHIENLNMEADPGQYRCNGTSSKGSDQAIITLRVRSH

The next experiment has as its target T2, CD147-his fusion protein (human, UniProt P35613 22-205).
T2 sequence: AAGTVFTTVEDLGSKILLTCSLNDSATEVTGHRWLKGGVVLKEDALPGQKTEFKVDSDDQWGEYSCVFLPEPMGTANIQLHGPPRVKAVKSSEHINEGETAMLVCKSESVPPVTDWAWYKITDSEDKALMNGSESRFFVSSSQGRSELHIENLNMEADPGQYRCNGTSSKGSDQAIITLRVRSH

Experiment [1] addresses CD147 on Vero E6 host cells. The experiment in a line: cell-based or functional assay.
In experiment [2] the target is T3, cyclophilin A (CyPA) (UniProt P62937 1-165).
T3 sequence (P62937 whole entry): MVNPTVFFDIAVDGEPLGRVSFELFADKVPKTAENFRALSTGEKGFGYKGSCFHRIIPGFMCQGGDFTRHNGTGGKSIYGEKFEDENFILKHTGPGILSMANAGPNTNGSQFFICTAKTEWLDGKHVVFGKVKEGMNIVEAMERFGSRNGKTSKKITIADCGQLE
In experiment [3] the target is T3, cyclophilin A (CyPA). Put plainly: ELISA; format not described. For orientation: An ELISA detects its analyte on a solid surface through an enzyme-linked reagent.

B1: anti-human BASIGIN humanized antibody (antibody, V domains shown)
VH: EVQLVESGGGLVQPGGSLRLSCAASGFTFSNFWMNWVRQAPGKGLEWVSEIRLKSNNYATHYAESVKGRFTISRDDSKNTLYLQMNSLKTEDTAVYYCTSYDYEYWGQGTLVTVSA
VL: DIQMTQSPSTLSASVGDRVTLSCKASENVGTYVSWYQQKPGKAPKLLIYGASNRYTGVPSRFTGSGSGTDFTLTISSLQPEDFATYYCGQSYSYPFTFGSGTKLEIK
The term IC50 denotes the concentration needed to halve the response being measured. Read a low IC50 as inhibition by little substance. As for B1, the concentration for half-maximal inhibition (IC50) with CD147-Tag fusion protein is 1.28 µg/mL; with CD147-his fusion protein, 16.4 µg/mL. Besides, in experiment [1], the “EC50 of inhibition of cytopathic effect of COVID-19 virus on Vero E6 cells” value was determined as 36 µg/mL.

B2: CD147 (receptor, human, UniProt P35613-2 22-205, looked up)
chain: AAGTVFTTVEDLGSKILLTCSLNDSATEVTGHRWLKGGVVLKEDALPGQKTEFKVDSDDQWGEYSCVFLPEPMGTANIQLHGPPRVKAVKSSEHINEGETAMLVCKSESVPPVTDWAWYKITDSEDKALMNGSESRFFVSSSQGRSELHIENLNMEADPGQYRCNGTSSKGSDQAIITLRVRSH
notes: also called BASIGIN; EMMPRIN
A word on the Kd: it is the equilibrium constant for the complex coming apart. Low readings indicate a tighter complex, high ones a looser complex. A word on the koff: it is a measure of how fast the partners let go of each other. High values mean a short-lived complex, low ones a long-lived complex. In general, EC50 refers to the concentration giving half of the maximal effect. A higher EC50 goes with lower potency in that assay. In the experiment with cyclophilin A (CyPA) [2], B2 came in with a Kd of about 8.7 µM and a koff of 0.0008 s⁻¹. Moreover, the EC50 with cyclophilin A (CyPA) [3] was determined as 135 µg/mL.
